Test results reported in patent US7144988B2, “Method of structure-based drug design to create or improve modulators of IL-1 activity which bind to the interleukin-1 type 1 receptor” (Array Biopharma, Inc., priority 2002, dated 2006).

Biological target: T1, IL1R2D (modified IL-1 type 1 receptor, amino acids 18 to 222) (Homo sapiens, UniProt P14778)
T1 construct: made in house; host or cells: Hi5 insect cells, recombinant baculovirus (made in Sf9)
T1 sequence (P14778 18-222): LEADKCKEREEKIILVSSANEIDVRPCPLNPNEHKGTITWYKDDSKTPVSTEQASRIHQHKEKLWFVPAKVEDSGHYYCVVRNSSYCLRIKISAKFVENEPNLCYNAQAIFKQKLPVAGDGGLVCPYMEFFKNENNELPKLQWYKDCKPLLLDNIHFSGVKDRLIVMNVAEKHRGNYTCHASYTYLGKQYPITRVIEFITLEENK
Experiment: Binding affinity of ligands to modified IL-1 type 1 receptor IL1R2D

Kd: ≥ 1000 nM
Substance: IL-1ra: IL-1 receptor antagonist protein; competes with IL-1α and β for receptor binding
